In patent US20240409635A1 (VIBRANT PHARMA, published 2024):
Blank lines part the entries; values can stand above or below the binder they belong to.

What was measured:
[1] = target: epidermal growth factor receptor (EGFR) on human tumor cells (human, UniProt P00533 25-1210); assay: cell-based or functional assay
[2] = target: T1, recombinant human EGFR protein (ACRO systems, EGR-H5222) (human, UniProt P00533 25-645); assay: BLI, antibody captured on AHC sensor
T1 construct: Bought reagent
Method: (§1) Antibodies were first captured onto an anti-human IgG Fc coated AHC biosensor (Anti-hIgG Fc, Sartorius, 18-5060). Antibodies were diluted to 5 μg/mL and 1.5 nm protein was coupled to the AHC sensor surface in 0.02% PBST.
(§2) After the sensor captures the antibodies, it is used to bind and dissociate with different concentrations of analytes to obtain the KD value of the interaction. The experimental parameters are as follows: Baseline1: 60 s, Loading: 240 s, Baseline2: 180 s, Association: 240 s, Dissociation: 600 s, High sensitivity kinetics: 2 Hz. Kinetic constants were derived based on the rate equation for 1:1 Langmuir binding to obtain equilibrium dissociation constants (KD). The Data Analysis HT 12 software (Sartorius, 50-5029) was used to simultaneously fit binding and dissociation curves to calculate Kₒₙ, and Koff. The affinity KD was calculated based on the below formula: KD=Koff/Kₒₙ.

[3] = target: T2, recombinant human CD3ε/δ protein (ACRO systems, CDD-H52W1) (human, UniProt P07766 23-126; P04234 22-105); assay: BLI, antibody captured on AHC sensor
T2 construct: Bought reagent
T2 sequence (P07766 23-126, stated change not applied, chain 1 of 2): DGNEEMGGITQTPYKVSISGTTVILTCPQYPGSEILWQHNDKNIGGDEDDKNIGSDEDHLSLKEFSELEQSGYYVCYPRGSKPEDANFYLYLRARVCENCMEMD
T2 sequence (P04234 22-105, stated change not applied, chain 2 of 2): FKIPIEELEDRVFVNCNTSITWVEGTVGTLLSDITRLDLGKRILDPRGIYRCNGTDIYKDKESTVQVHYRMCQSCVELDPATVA
Method: as §1, §2

Insulin = target: T3, Insulin; assay: ELISA, insulin coated, 100 nM antibody
T3 construct: Bought reagent, coated at 5 ug/mL
Method: (§3) The experimental steps are as follows [0420] […] (4) 50 μl anti-human IgG-HRP conjugate (Sigma, AP113P, 1:8000 dilution) was added to each well; the plate was incubated for 1 h at room temperature and washed 6 times with 0.05% PBST; [0424] (5) 50 μl of TMB chromogenic solution (Biopanda, TMB-S-001) was added to each well and incubated at room temperature for 10-15 minutes for color development; [0425] (6) 50 μl of 1M HCl was added to each well to stop the color development, and the absorbance at 450 nm was measured using a microplate reader (Biotek, SYNERGY LX); Data analysis: If the ratio between the absorbance of the antibody and the absorbance of the blank control PBS is ≥3, there is too much non-specific binding.

[4] = target: T4, keyhole limpet haemocyanin; assay: ELISA, KLH coated, 100 nM antibody
T4 construct: Bought reagent, coated at 5 ug/mL; also called KLH
Method: as §3

[5] = target: T5, recombinant human EGFR protein (ACRO systems, EGR-H5222) (human, UniProt P00533 25-645); assay: BLI, antibody on AHC sensor, antigen as analyte
T5 construct: Bought
Method: as §1
as §2, with “binds” for “is used to bind”, “dissociates” for “dissociate”, “Kₒₙ” for “Kₒₙ,”

[6] = target: T6, recombinant human tumor antigen CEACAM-6 (ACRO systems, CE6-H5223) (human, UniProt P40199 35-320); assay: BLI, antibody on AHC sensor, antigen as analyte
T6 construct: Bought
T6 sequence (looked up): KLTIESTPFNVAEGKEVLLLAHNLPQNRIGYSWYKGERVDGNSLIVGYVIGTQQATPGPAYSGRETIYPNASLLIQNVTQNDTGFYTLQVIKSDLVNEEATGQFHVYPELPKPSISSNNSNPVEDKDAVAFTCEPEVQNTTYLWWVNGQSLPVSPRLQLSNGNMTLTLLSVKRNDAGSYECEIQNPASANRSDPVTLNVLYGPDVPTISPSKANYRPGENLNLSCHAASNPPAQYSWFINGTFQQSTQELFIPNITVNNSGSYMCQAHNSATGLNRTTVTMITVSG
Method: as §1
as §2, with “binds” for “is used to bind”, “dissociates” for “dissociate”, “Kₒₙ” for “Kₒₙ,”

[7] = target: T7, recombinant human protein CD3ε/δ (ACRO systems, CDD-H52W1) (human, UniProt P07766 23-126; P04234 22-105); assay: BLI, antibody on AHC sensor, antigen as analyte
T7 construct: Bought heterodimer
T7 sequence (P07766 23-126, stated change not applied, chain 1 of 2): as the sequence (P07766 23-126, stated change not applied, chain 1 of 2) above
T7 sequence (P04234 22-105, stated change not applied, chain 2 of 2): as the sequence (P04234 22-105, stated change not applied, chain 2 of 2) above
Method: as §1
as §2, with “binds” for “is used to bind”, “dissociates” for “dissociate”, “Kₒₙ” for “Kₒₙ,”

[8] = target: T8, recombinant human c-Met protein (human, UniProt P08581 25-932); assay: BLI, antibody on AHC sensor
T8 construct: Bought
T8 sequence (P08581 25-932 limits assumed): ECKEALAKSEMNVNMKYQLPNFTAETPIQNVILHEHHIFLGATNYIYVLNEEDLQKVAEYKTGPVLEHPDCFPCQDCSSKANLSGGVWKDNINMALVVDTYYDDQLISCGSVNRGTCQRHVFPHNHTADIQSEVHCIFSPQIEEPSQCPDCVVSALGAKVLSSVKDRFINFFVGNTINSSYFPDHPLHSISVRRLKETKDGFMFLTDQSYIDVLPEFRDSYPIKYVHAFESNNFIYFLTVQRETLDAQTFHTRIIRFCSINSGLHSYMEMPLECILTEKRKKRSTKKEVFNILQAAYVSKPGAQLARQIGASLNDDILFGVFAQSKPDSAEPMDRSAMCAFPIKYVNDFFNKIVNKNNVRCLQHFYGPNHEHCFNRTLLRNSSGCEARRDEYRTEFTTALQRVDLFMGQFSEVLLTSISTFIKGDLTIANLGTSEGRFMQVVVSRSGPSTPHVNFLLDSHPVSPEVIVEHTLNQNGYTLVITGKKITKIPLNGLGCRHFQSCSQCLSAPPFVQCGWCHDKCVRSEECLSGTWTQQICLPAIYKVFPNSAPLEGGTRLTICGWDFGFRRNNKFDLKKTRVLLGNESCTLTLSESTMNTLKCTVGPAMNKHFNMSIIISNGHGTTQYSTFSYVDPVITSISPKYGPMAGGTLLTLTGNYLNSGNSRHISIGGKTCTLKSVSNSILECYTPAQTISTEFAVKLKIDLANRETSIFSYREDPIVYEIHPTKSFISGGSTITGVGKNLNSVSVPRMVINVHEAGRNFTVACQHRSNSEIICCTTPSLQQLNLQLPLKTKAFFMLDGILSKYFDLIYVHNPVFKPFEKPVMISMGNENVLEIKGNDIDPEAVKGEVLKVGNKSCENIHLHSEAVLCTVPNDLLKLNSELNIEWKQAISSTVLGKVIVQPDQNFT
Method: as §1
as §2, with “Kₒₙ” for “Kₒₙ,”

- Kd [2]: 9.85 nM
- koff [2]: 0.00305 s⁻¹
- kon [2]: 309000 M⁻¹ s⁻¹
- Kd [3]: 9.03 nM
- koff [3]: 0.000748 s⁻¹
- kon [3]: 82900 M⁻¹ s⁻¹
B1: EGFR-BsAb bispecific control antibody (TA1-Fab CD3 x EGFR VHH) (bispecific antibody, human IgG4 S228P, kappa, F234A L235A)
heavy: EVKLLESGGGLVQPKGSLKLSCAASGFTFNTYAMNWVRQAPGKGLEWVARIRSKYNNYATYYADSVKDRFTISRDDSQSILYLQMNNLKTEDTAMYYCVRHGNFGNSYVSWFAYWGQGTLVTVSSASTKGPSVFPLAPCSRSTSESTAALGCLVKDYFPEPVTVSWNSGALTSGVHTFPAVLQSSGLYSLSSVVTVPSSSLGTKTYTCNVDHKPSNTKVDKRVESKYGPPCPPCPAPEAAGGPSVFLFPPKPKDTLMISRTPEVTCVVVDVSQEDPEVQFNWYVDGVEVHNAKTKPREEQFNSTYRVVSVLTVLHQDWLNGKEYKCKVSNKGLPSSIEKTISKAKGQPREPQVYTLPPCQEEMTKNQVSLWCLVKGFYPSDIAVEWESNGQPENNYKTTPPVLDSDGSFFLYSRLTVDKSRWQEGNVFSCSVMHEALHNHYTQKSLSLSL
chain: QVQLQESGGGSVQAGGSLKLSCAASGRGFSRYAMGWFRQAPGQDREFVATISWTNSTDYADSVKGRFAISRDNAKNTAYLQMNSLKPEDTAVYYCAADKWASSTRSIDYDYWGQGIQVTVSSESKYGPPCPPCPAPEAAGGPSVFLFPPKPKDTLMISRTPEVTCVVVDVSQEDPEVQFNWYVDGVEVHNAKTKPREEQFNSTYRVVSVLTVLHQDWLNGKEYKCKVSNKGLPSSIEKTISKAKGQPREPQVCTLPPSQEEMTKNQVSLSCAVKGFYPSDIAVEWESNGQPENNYKTTPPVLDSDGSFFLVSRLTVDKSRWQEGNVFSCSVMHEALHNRFTQKSLSLSL
light: QAVVTQESALTTSPGETVTLTCRSSTGAVTTSNYANWVQEKPDHLFTGLIGGTNKRAPGVPARFSGSLIGDKAALTITGAQTEDEAIYFCALWYSNLWVFGGGTKVEIKRTVAAPSVFIFPPSDEQLKSGTASVVCLLNNFYPREAKVQWKVDNALQSGNSQESVTEQDSKDSTYSLSSTLTLSKADYEKHKVYACEVTHQGLSSPVTKSFNRGEC
notes: also called anti-EGFR-BsAb
- killing EC50, NCI-H157 cells (EGFR-positive) [1]: 0.02 nM
- killing EC50, NCI-H1299 cells (EGFR-positive) [1]: 0.0318 nM
- killing EC50, NCI-H1395 cells (EGFR-positive) [1]: 0.0108 nM

- absorbance ratio to PBS blank (Insulin): 0.87
- absorbance ratio to PBS blank [4]: 0.45
B2: CEA-CAM6-BsAb bispecific control antibody (TA1-Fab anti-CD3 x CEA-CAM6 VHH) (bispecific antibody, human IgG4 S228P, kappa, F234A L235A)
heavy: B1 heavy
chain: QVKLEESGGGLVQAGGSLRLSCRTSGRTNSVYTMGWFRQAPGKEREFVAQIMWGAGTNTHYADSVKGRFTISRDSAESTVYLQMNSLKPEDTAVYYCAANRGIPIAGRQYDYWGQGTQVTVSSESKYGPPCPPCPAPEAAGGPSVFLFPPKPKDTLMISRTPEVTCVVVDVSQEDPEVQFNWYVDGVEVHNAKTKPREEQFNSTYRVVSVLTVLHQDWLNGKEYKCKVSNKGLPSSIEKTISKAKGQPREPQVCTLPPSQEEMTKNQVSLSCAVKGFYPSDIAVEWESNGQPENNYKTTPPVLDSDGSFFLVSRLTVDKSRWQEGNVFSCSVMHEALHNRFTQKSLSLSL
light: B1 light
notes: IgG4

- koff [5]: 0.00143 s⁻¹
- kon [5]: 570000 M⁻¹ s⁻¹
- Kd [6]: 1.64 nM
- koff [6]: 0.000336 s⁻¹
- kon [6]: 206000 M⁻¹ s⁻¹
- Kd [7]: 5.73 nM
- koff [7]: 0.00421 s⁻¹
- kon [7]: 734000 M⁻¹ s⁻¹
B3: CEACAM6-BsAb (CD3 TA1-Fab x CEA-CAM6 VHH bispecific control antibody) (bispecific antibody, human IgG4 S228P, kappa, F234A L235A)
heavy: B1 heavy
chain: B2 chain
light: B1 light
notes: also called anti-CEA-CAM6-BsAb

- absorbance ratio to PBS blank (Insulin): 1.69
- absorbance ratio to PBS blank [4]: 2.31
B4: HER2-BsAb bispecific control antibody (TA1-Fab anti-CD3 x HER2 VHH) (bispecific antibody, human IgG4 S228P, kappa, F234A L235A)
heavy: B1 heavy
chain: QVQLVQSGGGLVQAGGSLRLSCAASGRTFSSYAMAWFRQAPGKEREFVAAISWSGANIYVADSVKGRFTISRDNAKDTVYLQMNSLKPEDTAVYYCAVKLGFAPVEERQYDYWGQGTQVTVSSESKYGPPCPPCPAPEAAGGPSVFLFPPKPKDTLMISRTPEVTCVVVDVSQEDPEVQFNWYVDGVEVHNAKTKPREEQFNSTYRVVSVLTVLHQDWLNGKEYKCKVSNKGLPSSIEKTISKAKGQPREPQVCTLPPSQEEMTKNQVSLSCAVKGFYPSDIAVEWESNGQPENNYKTTPPVLDSDGSFFLVSRLTVDKSRWQEGNVFSCSVMHEALHNRFTQKSLSLSL
light: B1 light
notes: IgG4

- Kd [8]: 0.523 nM
- koff [8]: 0.000367 s⁻¹
- kon [8]: 702000 M⁻¹ s⁻¹
B5: c-Met-BsAb bispecific control antibody (TA1F anti-CD3 Fab x c-Met VHH) (bispecific antibody, IgG4, not shown: a dimerising Fc or GST)
heavy: EVKLLESGGGLVQPKGSLKLSCAASGFTFNTYAMNWVRQAPGKGLEWVARIRSKYNNYATYYADSVKDRFTISRDDSQSILYLQMNNLKTEDTAMYYCVRHGNFGNSYVSWFAYWGQGTLVTVSSASTKGPSVFPLAPCSRSTSESTAALGCLVKDYFPEPVTVSWNSGALTSGVHTFPAVLQSSGLYSLSSVVTVPSSSLGTKTYTCNVDHKPSNTKVDKRV
chain: QVKLEESGGDLVQPGGSLRLSCVGSGSIFSYTAMGWYRQAPGKQRELVATIHSGGNINYADSVKGRFTISRDNTENTVYLQMNSLKPEDTAVYYCWSLLVGPETRYKDFNFWGRGTQVTVSS
light: B1 light
notes: the text gives VH-CH1-Hinge-Fc (IgG4) and VL-CL (kappa)

- Kd [5]: 4.43 nM
- koff [5]: 0.00519 s⁻¹
- kon [5]: 1.17e+06 M⁻¹ s⁻¹
- koff [6]: 0.000247 s⁻¹
- kon [6]: 222000 M⁻¹ s⁻¹
- Kd [7]: 6.43 nM
- koff [7]: 0.00338 s⁻¹
- kon [7]: 526000 M⁻¹ s⁻¹
B6: EGFR-BsAb (CD3 TA1-Fab x EGFR VHH bispecific control antibody) (bispecific antibody, human IgG4 S228P, kappa, F234A L235A)
heavy: B1 heavy
chain: B1 chain
light: B1 light
notes: also called anti-EGFR-BsAb

- absorbance ratio to PBS blank (Insulin): 1.24
- absorbance ratio to PBS blank [4]: 2.16
B7: CEA-BsAb bispecific control antibody (TA1-Fab anti-CD3 x CEA VHH) (bispecific antibody, human IgG4 S228P, kappa, F234A L235A)
heavy: B1 heavy
chain: EVQLVESGGGFVQAGESLTLSCTSSTLTFTPYRMAWYRQAPGKQRDLVADISSGDGRTTNYADFAKGRFTISRDNIKNTVFLRMTNLKPEDTAVYYCNTFVSFVGIARSWGQGTQVTVSSESKYGPPCPPCPAPEAAGGPSVFLFPPKPKDTLMISRTPEVTCVVVDVSQEDPEVQFNWYVDGVEVHNAKTKPREEQFNSTYRVVSVLTVLHQDWLNGKEYKCKVSNKGLPSSIEKTISKAKGQPREPQVCTLPPSQEEMTKNQVSLSCAVKGFYPSDIAVEWESNGQPENNYKTTPPVLDSDGSFFLVSRLTVDKSRWQEGNVFSCSVMHEALHNRFTQKSLSLSL
light: B1 light
notes: IgG4
